This note sets out measurements from paper PMC8294757 (Science Advances, 2021).

This experiment deals with ELMO1-DOCK5 (1 to 1642) complex (human, UniProt Q9H7D0 1-1642; Q92556 1-727). In words: SPR. A general note: Surface plasmon resonance follows binding to a sensor surface in real time, without labels.
Sequence of ELMO1-DOCK5 (1 to 1642) complex (Q9H7D0 1-1642, chain 1 of 2): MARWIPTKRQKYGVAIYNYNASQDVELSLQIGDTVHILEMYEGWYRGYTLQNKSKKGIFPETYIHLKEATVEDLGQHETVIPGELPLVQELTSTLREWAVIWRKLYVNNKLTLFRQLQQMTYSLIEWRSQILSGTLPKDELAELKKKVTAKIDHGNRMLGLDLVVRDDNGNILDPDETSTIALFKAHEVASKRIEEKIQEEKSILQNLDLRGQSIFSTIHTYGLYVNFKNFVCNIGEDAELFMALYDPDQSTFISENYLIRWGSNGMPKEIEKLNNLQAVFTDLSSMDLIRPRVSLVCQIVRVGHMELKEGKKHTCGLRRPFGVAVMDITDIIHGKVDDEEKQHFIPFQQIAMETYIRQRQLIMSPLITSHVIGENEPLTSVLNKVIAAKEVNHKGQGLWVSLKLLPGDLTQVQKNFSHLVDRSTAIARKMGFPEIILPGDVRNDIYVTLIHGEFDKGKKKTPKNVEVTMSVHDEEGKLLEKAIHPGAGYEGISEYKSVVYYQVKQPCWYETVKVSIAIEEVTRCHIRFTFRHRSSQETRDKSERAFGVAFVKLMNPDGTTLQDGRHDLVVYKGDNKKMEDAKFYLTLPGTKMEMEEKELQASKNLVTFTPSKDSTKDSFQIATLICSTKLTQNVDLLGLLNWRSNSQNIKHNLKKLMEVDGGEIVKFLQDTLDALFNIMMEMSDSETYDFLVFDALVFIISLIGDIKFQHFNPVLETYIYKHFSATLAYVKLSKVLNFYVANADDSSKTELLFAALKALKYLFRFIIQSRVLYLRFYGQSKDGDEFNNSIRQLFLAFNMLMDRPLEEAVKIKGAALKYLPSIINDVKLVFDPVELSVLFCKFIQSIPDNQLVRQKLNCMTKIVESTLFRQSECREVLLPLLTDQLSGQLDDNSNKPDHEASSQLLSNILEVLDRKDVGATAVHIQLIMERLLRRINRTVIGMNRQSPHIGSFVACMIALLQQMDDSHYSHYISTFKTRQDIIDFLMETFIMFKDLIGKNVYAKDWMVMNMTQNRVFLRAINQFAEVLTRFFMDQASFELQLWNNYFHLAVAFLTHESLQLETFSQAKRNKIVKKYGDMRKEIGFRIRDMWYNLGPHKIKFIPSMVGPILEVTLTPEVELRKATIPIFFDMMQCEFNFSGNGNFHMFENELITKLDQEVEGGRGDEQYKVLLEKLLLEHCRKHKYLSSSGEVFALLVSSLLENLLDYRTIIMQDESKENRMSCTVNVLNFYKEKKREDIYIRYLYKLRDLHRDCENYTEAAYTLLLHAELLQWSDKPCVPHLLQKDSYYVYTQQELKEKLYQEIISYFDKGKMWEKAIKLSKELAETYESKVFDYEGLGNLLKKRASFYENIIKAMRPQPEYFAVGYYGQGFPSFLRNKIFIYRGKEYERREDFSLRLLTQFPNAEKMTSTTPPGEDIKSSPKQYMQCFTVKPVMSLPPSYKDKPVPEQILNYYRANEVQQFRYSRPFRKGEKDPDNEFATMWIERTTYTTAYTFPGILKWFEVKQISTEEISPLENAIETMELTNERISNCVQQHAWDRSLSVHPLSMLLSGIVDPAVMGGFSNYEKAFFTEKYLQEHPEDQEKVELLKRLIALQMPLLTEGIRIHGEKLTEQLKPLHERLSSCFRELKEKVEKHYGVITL
Sequence of ELMO1-DOCK5 (1 to 1642) complex (Q92556 whole entry, chain 2 of 2): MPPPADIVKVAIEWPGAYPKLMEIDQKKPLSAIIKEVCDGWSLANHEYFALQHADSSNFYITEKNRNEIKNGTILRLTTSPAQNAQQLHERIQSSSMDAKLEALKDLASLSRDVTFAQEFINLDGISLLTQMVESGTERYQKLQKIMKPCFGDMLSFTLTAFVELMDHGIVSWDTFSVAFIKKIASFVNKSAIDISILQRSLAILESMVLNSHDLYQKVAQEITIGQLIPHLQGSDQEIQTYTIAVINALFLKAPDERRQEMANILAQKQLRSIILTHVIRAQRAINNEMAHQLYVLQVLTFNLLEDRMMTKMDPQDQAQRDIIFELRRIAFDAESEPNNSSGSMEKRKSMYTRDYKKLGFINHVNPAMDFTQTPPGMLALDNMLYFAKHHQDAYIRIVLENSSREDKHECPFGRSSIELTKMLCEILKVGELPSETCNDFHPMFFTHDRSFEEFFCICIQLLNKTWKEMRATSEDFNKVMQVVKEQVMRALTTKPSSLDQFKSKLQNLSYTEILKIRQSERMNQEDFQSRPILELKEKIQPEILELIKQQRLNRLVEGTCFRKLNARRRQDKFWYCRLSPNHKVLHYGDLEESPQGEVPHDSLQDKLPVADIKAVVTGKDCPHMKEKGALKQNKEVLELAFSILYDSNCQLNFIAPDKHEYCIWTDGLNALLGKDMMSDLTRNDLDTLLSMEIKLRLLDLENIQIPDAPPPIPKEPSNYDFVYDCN

B1: human RhoG (residues 1 to 184) Q61L mutant, GTP-bound (natural protein)
chain: not shown
The term Kd denotes the concentration at which binding is half-saturated. Lower therefore signals higher affinity. On to B1, for which binding was put at a Kd of 10.3 µM.
